Data published in patent US20240199740A1.

Molecular target: soluble recombinant cynomolgus TCR α/β-zipper protein (cynomolgus/rhesus monkey)
Assay: ELISA, 2 µg/mL coated soluble recombinant cynomolgus TCR α/β-zipper protein

soluble recombinant cynomolgus TCR α/β-zipper protein (cynomolgus/rhesus monkey), sequence (alpha, as listed by the source limits assumed, form in doubt, chain 1 of 2): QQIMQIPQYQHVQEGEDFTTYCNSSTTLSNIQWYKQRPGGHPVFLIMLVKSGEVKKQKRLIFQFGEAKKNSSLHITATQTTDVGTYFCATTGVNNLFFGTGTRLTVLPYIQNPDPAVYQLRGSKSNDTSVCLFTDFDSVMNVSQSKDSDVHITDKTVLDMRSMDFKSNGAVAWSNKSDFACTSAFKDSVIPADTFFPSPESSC
soluble recombinant cynomolgus TCR α/β-zipper protein (cynomolgus/rhesus monkey), sequence (beta, as listed by the source limits assumed, form in doubt, chain 2 of 2): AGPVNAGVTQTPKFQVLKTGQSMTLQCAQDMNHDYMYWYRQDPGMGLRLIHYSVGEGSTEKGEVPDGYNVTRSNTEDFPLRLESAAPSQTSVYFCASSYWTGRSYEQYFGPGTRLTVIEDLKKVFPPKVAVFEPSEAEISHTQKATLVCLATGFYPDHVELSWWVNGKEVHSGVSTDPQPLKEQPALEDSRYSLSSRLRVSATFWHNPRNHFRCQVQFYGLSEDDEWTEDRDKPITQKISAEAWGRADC

With “anti-non-human primate/Rat TCRα/β antibody clone R73” as the substance, how does the EC50 (read off the curve) read?
Its EC50 (read off the curve) is 0.1 nM.
